What was measured:
Assay in all cases: SPR
Palivizumab = molecular target: Palivizumab
[1] = molecular target: Palivizumab single-chain variable fragment, light-heavy order, fused to IgG1 Fc (P^scFvLHFc)
[2] = molecular target: Palivizumab single-chain variable fragment, heavy-light order, fused to IgG1 Fc (P^scFvHLFc)
Palivizumab single-chain variable fragment, heavy-light order, fused to IgG1 Fc (P^scFvHLFc), sequence (chain, as listed by the source, chain 1 of 2): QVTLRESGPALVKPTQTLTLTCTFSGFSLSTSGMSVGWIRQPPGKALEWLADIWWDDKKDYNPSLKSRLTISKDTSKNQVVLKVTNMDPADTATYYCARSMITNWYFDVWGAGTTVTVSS
Palivizumab single-chain variable fragment, heavy-light order, fused to IgG1 Fc (P^scFvHLFc), sequence (chain, as listed by the source, chain 2 of 2): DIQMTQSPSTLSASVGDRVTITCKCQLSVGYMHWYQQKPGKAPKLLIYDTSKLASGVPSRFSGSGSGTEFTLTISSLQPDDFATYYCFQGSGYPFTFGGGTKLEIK

Palivizumab, sequence (VH, as listed by the source, chain 1 of 2): as the sequence (chain, as listed by the source, chain 1 of 2) above
Palivizumab, sequence (VL, as listed by the source, chain 2 of 2): as the sequence (chain, as listed by the source, chain 2 of 2) above
Palivizumab single-chain variable fragment, light-heavy order, fused to IgG1 Fc (P^scFvLHFc), sequence (chain, as listed by the source, chain 1 of 2): as the sequence (chain, as listed by the source, chain 1 of 2) above
Palivizumab single-chain variable fragment, light-heavy order, fused to IgG1 Fc (P^scFvLHFc), sequence (chain, as listed by the source, chain 2 of 2): as the sequence (chain, as listed by the source, chain 2 of 2) above

Row | Binder | koff (Palivizumab) [s⁻¹] | koff [1] [s⁻¹] | koff [2] [s⁻¹]
1 | anti-idiotypic nanobody for Palivizumab 2 (AIP2^VHH), soluble (VHH) VHH: DVQLQESGGGLVQAGGSLRLSCAASESLFRLNAMGWYRQAPGKQRELVAGITTSGDAVYADSVKGRFTISRDSAKNTVYLQTNNLKPEDTAVYYCNVRPRAGTWENARIGVWGQGTQVTVSS | 0.000733 |  | 
2 | anti-idiotypic nanobody for Palivizumab 1 (AIP1^VHH), soluble (VHH) VHH: DVQLQESGGGLVQAGGSLRLSCVASGLTFRYDMGWFRQAPGKEREFVAQITWRGGSATYYADSVKGRFTIARDIAKNAVYLQMNSLKPEDTAVYYCAAAYGSAGYRPDEYDSWGQGTQVTVSS |  | 4.2e-05 | 6.56e-05

Results, then the binder that gave them:

Row | koff (Palivizumab) [s⁻¹] | koff [1] [s⁻¹] | koff [2] [s⁻¹] | Binder
3 | 0.0148 |  |  | anti-idiotypic nanobody for Palivizumab 4 (AIP4^VHH), soluble (VHH) VHH: DVQLQESGGGLVQAGGSLRLSCVASGRAFSRYDMGWFRQAPGKEREFVAQISWRGGSATSYADTVKGRFTIARDNAKNTVYLQMNSLKPEDTAVYYCNARTPTLSSWGQGTQVTVSS
4 | 0.00308 |  |  | anti-idiotypic nanobody for Palivizumab 3 (AIP3^VHH), soluble (VHH) VHH: DVQLQESGGGLVQPGGSLRLSCVASGRTWSIYAMGWFRQAPGKEREFVTAISISRSESVTHYAESVTGRFTISRDNAKNTLHLQMNSLKPEDTAVYFCAADRRSIDPHHTIDYWGQGTQVTVSS

— publication PMC10630626 (2023)
